Experimental data as given in patent publication US8809529B2, “Imidazo[1,2-α]pyrazine derivatives” (Promega Corporation, priority 2010, dated 2014).

Key:
[1] = test system: cAMP response element (CRE); test: CRE transcriptional reporter, forward transfection, HEK293 cells; format: cell-based, human; parameters: Response: scale not given here; conditions: for baseline: 10 nM FSK; for baseline / RLU (10 μM FSK): 3 h
Method: HEK293 cells were plated at 15,000 cells/well in six 96-well tissue culture plates. Cells were grown in 100 μL of DMEM+10% FBS+1× non-essential amino acids (NEAA) and incubated overnight at 37° C. The cells were transiently transfected with either 10 ng or 100 ng plasmid DNA/well of pGL4.29 9B8 opt, pGL4.29 9B8 opt-P, or pGL4.29. Plasmid DNA was mixed with 850 μL of OPTI-MEM® (Invitrogen) and 32.4 μL of FUGENE® HD transfection reagent (Promega Corp.) and incubated at room temperature for 10 min. Eight μL of the transfection/reporter DNA mixture was added to the appropriate wells (2 constructs/plate). Cells were incubated for 4 hrs at 37° C. The medium was replaced with OPTI-MEM®+0.5% dialyzed FBS+1×NEAA+1× sodium pyruvate+1× Penn-Strep and incubated overnight at 37° C.
A lytic reagent containing 100 mM MES pH 6.1, 1 mM CDTA, 150 mM KCl, 35 mM thiourea, 2 mM DTT, 0.25% TERGITOL® NP-9 (v/v), 0.025% MAZU® DF 204, and 20 μM PBI-3939 was added to the cells containing pGL4.29 9B8 opt or pGL4.29 9B8 opt-P and allowed to incubated for 10 min at room temperature (100 μL lytic reagent added to 100 μL cells). ONE-GLO™ assay reagent (Promega Corp.) was added to cells containing pGL4.29 and used according to the manufacturer's protocol (100 μL reagent added to 100 μL cells). Luminescence was measured on a GLOMAX® Luminometer.

[2] = test system: antioxidant response element (ARE); test: ARE transcriptional reporter, reverse transfection, HEK293 cells; format: cell-based, human; conditions: 24 h, 100 ng DNA
[3] = Brightness of purified OgLuc variant compared to firefly luciferase; format: biochemical
Method: The 9B8 OgLuc variant was overexpressed and purified as described in Example 33. Reactions between diluted enzyme and substrate were performed using the following 2× buffer/assay reagent: 100 mM MES pH 6.0, 1 mM CDTA, 150 mM KCl, 35 mM thiourea, 2 mM DTT, 0.25% TERGITOL® NP-9 (v/v), 0.025% MAZU® DF 204, 10 mg/mL […], and 20 μM PBI-3939. The final assay concentrations of purified enzyme and substrate were 0.5 pM and […], respectively. In parallel, reactions between diluted purified firefly luciferase (i.e., QUANTILUM® Recombinant Luciferase (Promega Corp.)) and luciferin were analyzed. The assay buffer/reagent for the firefly luciferase reaction was BRIGHT-GLO™, and the final assay concentrations were 0.5 pM enzyme and 500 μM luciferin. As the buffers/reagents for each reaction were known to provide “glow” kinetics, a 15 min time point was used to collect luminescence data.

CRE = CRE transcriptional reporter, bulk transfection, NIH3T3 cells; format: cell-based
Method: The transcriptional reporter containing […] and 9B8 opt-P was used in the bulk transfection of HeLa cells
HEK293, NIH3T3, or HeLa cells were plated to a single well of a 6-well tissue culture plate the day before transfection at a density of 4.5×10^5 cells/well in 3 mL complete medium (DMEM+10% FBS+1×NEAA+1× sodium pyruvate) for HEK293 cells, 3×10^5 cellsNvell in 3 mL complete medium (DMEM+10% fetal calf serum (FCS)+1×NEAA+1× sodium pyruvate) for NIH3T3 cells, or 9.9×10^5 cells/well in 3 mL complete medium (DMEM+10% FBS+1×NEAA) for HeLa cells. Cells were grown overnight at 37° C.
3,300 ng of reporter plasmid DNA in 155 4 OPTI-MEM® was mixed with 9.9 μL FUGENE® HD transfection reagent, vortexed briefly, and incubated at room temperature for 10 min. The CRE transcriptional reporters were used to transfect HEK293 and NIH3T3 cells. The HRE transcriptional reporters were used to transfect HeLa cells. The reporter mixture was added to cells and mixed by gentle rocking followed by incubation at 37° C. for 6 hrs (HEK293 and NIH3T3) or 3 hrs (HeLa). Cells were then trypsinized and resuspended in medium (DMEM+10% FBS+1×NEAA+1× sodium pyruvate for HEK293 cells, DMEM+10% FCS+1×NEAA+1× sodium pyruvate for NIH3T3 cells, or DMEM+10% FBS+1×NEAA for HeLa cells), followed by plating to the individual wells of a 96-well plate (20,000 cells/100 μL for HEK293, 10,000 cells/100 4 for NIH3T3, or […] for HeLa) and incubated at 37° C. overnight.
FSK (CRE stimulator) or 17-AAG (HRE stimulator; 17-Allylamino-demethoxy geldanamycin) in OPTI-MEM® was added to the cells (10 nM or 10 μM final concentration for FSK; 1 nM or 1 μM final concentration for 17-AAG) and incubated at 37° C. for 4 hrs (FSK) or 6 hrs (17-AAG). Plates were removed from the incubator and allowed to equilibrate to room temperature for 25 min. Cells were lysed with 100 μL lytic reagent as described above for the forward transfection. Luminescence was measured on a GLOMAX® Luminometer.

[4] = test system: antioxidant response element (ARE); test: ARE transcriptional reporter, reverse transfection, HEK293 cells; format: cell-based, human; conditions: for baseline: 24 h, 100 ng DNA
Method: HEK293 cells were trypsinized (T75 flask, 3 mL trypsin) and resuspended in […] (approximately 8.9×10^6 total cells) in medium containing DMEM+10% FBS+1×NEAA. Each transcriptional reporter was prepared for transfection by mixing 1.2 mL OPTI-MEM®, 12 μL transcription reporter DNA (100 ng) and 36 μL FUGENE® HD transfection reagent together and incubated at room temperature for 35 min. Following incubation, 624 μL of the transfection/reporter DNA mixture was added to 12 mL of cell suspension and mixed by inversion. After mixing, 100 μL of the cell/DNA mixture was added to wells of a 96-well plate (2 constructs/plate). The cells were incubated at 37° C. for 22 hrs. Tert-butylhydroquinone (a Nrf2 stabilizer; tBHQ; 1 μM (“baseline”) or 20 μM) or sulphoraphane, (an organosulfer antioxidant known to activate Nrf2; 1 μM (“baseline”) or 20 μM) in OPTI-MEM® was added to each well and incubated at 37° C. for 24 hrs. Cells were lysed with 100 μL lytic reagent as described above for the forward transfection. Luminescence was measured on a GLOMAX® Luminometer.

B1: 9B8 opt: codon optimized version of the 9B8 variant (protein)
chain: MVFTLEDFVGDWRQTAGYNLDQVLEQGGLSSLFQKLGVSVTPIQKIVLSGENGLKIDIHVIIPYEGLSGYQMGQIEKIFKVVYPVDDHHFKVILHYGTLVIDGVTPNMIDYFGRPYEGIAVFDGKKITVTGTLWNGNKIIDERLINPDGSLLFRVTINGVTGWRLCERILA
Response ([1]; 10 ng DNA for transfection): 67
baseline ([1]; 10 ng DNA for transfection): 192810
RLU (10 μM FSK) ([1]; 10 ng DNA for transfection): 12,926,465 RLU
Response ([1]; 100 ng DNA for transfection): 34
baseline ([1]; 100 ng DNA for transfection): 3,078,418
RLU (10 μM FSK) ([1]; 100 ng DNA for transfection): 104,687,723 RLU
RLU (20 μM sulphoraphane) [2]: 89,600,000 RLU
RLU (20 μM tBHQ) [2]: 120,000,000 RLU
brightness relative to QUANTILUM Recombinant Luciferase with BRIGHT-GLO [3]: approximately 8 fold
luminescence ([3]; 0.5 pM enzyme, 15 min, 9B8 opt with PBI-3939, QUANTILUM with BRIGHT-GLO): 19,200 RLU
baseline (CRE; NIH3T3, 10 nM FSK, 4 h): 9,187,000
RLU (10 mM FSK) (CRE; NIH3T3, 4 h): 23,600,000 RLU
Response (CRE; NIH3T3, FSK): 2.6
baseline ([4]; 1 μM sulphoraphane): 15,600,000
baseline ([4]; 1 μM tBHQ): 15,100,000
Response ([4]; sulphoraphane): 5.8
Response ([4]; tBHQ): 8
